Experimental data published in patent publication US20130065819A1.

Molecular target: HIV Tat transcription factor (HIV)
Experiment: cell-based or functional assay

## human TOE1 (Target of Egr1) (from UniProt Q96GM8 1-510)
  decrease in Tat driven transactivation of the HIV LTR/TAR luciferase reporter in HeLa cells: 50 to 80%
